From the supplement of paper PMC7877785
± gives the uncertainty stated by the source.

Test: self-splicing fitness, log relative to wild type (ln ratio); higher = more splicing; Tetrahymena group I intron in knt gene, E. coli kanamycin selection, DiMSum; sequences stand for … in CUCUCU…GGAGGGAAAAGUUAUCAGGCAUGCACCUGGUAGCUAGUCUUUAAACCAAUAGAUUGCAUCGGUUUAAAAGGCAAGACCGUCAAAUUGCGGGAAAGGGGUCAACAGCCGUUCAGUACCAAGUCUCAGGGGAAACUUUGAGAUGGCCUUGCAAAGGGUAUGGUAAUAAGCUGACGGACAUGGUCCUAACCACGCAGCCAAGUCCUAAGUCAACAGAUCUUCUGUUGAUAUGGAUGCAGUUCACAGACUAAAUGUCGGUCGGGGAAGAUGUAUUCUUCUCAUAAGAUAUAGUCGGACCUCUCCUUAAUGGGAGCUAGCGGAUGAAGUGAUGCAACACUGGAGCCGCUGGGAACUAAUUUGUAUGCGAAAGUAUAUUGAUUAGUUUUGGAGUACUCGUGGUCG
Method in brief: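 Six replicate transformations of E. coli BL21(DE3) with a pET-22b(+) library were grown overnight at 37°C or 30°C. The library randomised all eight P1ex-region intron nucleotides, the intron lying in the knt kanamycin-resistance gene, and plates were LB agar with or without 25 μg/mL kanamycin plus 100 μg/mL carbenicillin, 50 μM IPTG and 0.2% rhamnose. Pooled colonies were amplicon-sequenced on an Illumina HiSeq 2500, and fitness is the DiMSum error-weighted combination of wild-type-normalised replicate fold changes, kanamycin versus none.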

Sequence	self-splicing fitness (ln) (30 °C)	self-splicing fitness (ln) (37 °C)
ACCCAGCAAUAUUACGCCAU	-4.24 ± 0.23	-1.88 ± 0.16
CUCAAGCAAUAUUACGCCCC		-1.28 ± 0.5
AGCGAGCAAUAUUACGGGAU	-3.92 ± 0.28	-2.76 ± 0.27
CUGUAGCAAUAUUACGCUCG	-1 ± 0.18	-0.773 ± 0.25
UUAUAGCAAUAUUACGCCUA	-1.55 ± 0.15	0.273 ± 0.2
GUCCAGCAAUAUUACGCCCC	-1.09 ± 0.18	-0.607 ± 0.18
CCGGAGCAAUAUUACGUCGC	-2.63 ± 0.32	-2.43 ± 0.41
GACUAGCAAUAUUACGGUAC	-2.1 ± 0.2	-1.2 ± 0.18
CUAGAGCAAUAUUACGAGAG	-0.641 ± 0.071	-0.393 ± 0.099
GGGUAGCAAUAUUACGCCGG	-4.18 ± 0.39	-2.03 ± 0.24
AAGUAGCAAUAUUACGGUGU	-2.2 ± 0.09	-1.23 ± 0.099
GGCCAGCAAUAUUACGGUUG	-0.224 ± 0.062	-0.166 ± 0.075
UGAGAGCAAUAUUACGGGUG	-3.65 ± 0.19	-2.11 ± 0.19
AUAGAGCAAUAUUACGCUGU	-0.963 ± 0.11	0.0295 ± 0.14
UACAAGCAAUAUUACGGCUA	-0.336 ± 0.06	0.201 ± 0.088
GAGAAGCAAUAUUACGGAUU	-2.77 ± 0.11	-1.63 ± 0.11
UUAAAGCAAUAUUACGGAAC	-1.08 ± 0.23	-1.69 ± 0.37
UCUCAGCAAUAUUACGUCCG	-2.5 ± 0.28	-2.26 ± 0.41
ACCCAGCAAUAUUACGGAGG	-2.1 ± 0.098	-1.35 ± 0.12
UUAAAGCAAUAUUACGCAGA	-0.209 ± 0.11	-0.133 ± 0.13
CAAUAGCAAUAUUACGUAUC	-3.48 ± 0.15	-2.73 ± 0.18

Sequence	self-splicing fitness (ln) (30 °C)	self-splicing fitness (ln) (37 °C)
AUGGAGCAAUAUUACGGCUG	-2.48 ± 0.17	-1.84 ± 0.34
GUCGAGCAAUAUUACGGUGG	-3.54 ± 0.27	-2.24 ± 0.22
AGUUAGCAAUAUUACGGUAU	-2.69 ± 0.13	-1.34 ± 0.13
UGACAGCAAUAUUACGAUUA	-0.338 ± 0.059	0.419 ± 0.066
UACCAGCAAUAUUACGUCGG	-2.64 ± 0.12	-1.91 ± 0.14
GCACAGCAAUAUUACGCGGC	-4.04 ± 0.43	-1.84 ± 0.26
AUUAAGCAAUAUUACGCUUG	-1.87 ± 0.11	-0.856 ± 0.14
UGGGAGCAAUAUUACGCAAG	-2.15 ± 0.36	
GCACAGCAAUAUUACGUCUG	-2.53 ± 0.1	-1.27 ± 0.11
ACAUAGCAAUAUUACGAUCA	-1.71 ± 0.087	-0.779 ± 0.098
UGCUAGCAAUAUUACGGUUC	-2.49 ± 0.16	-1.69 ± 0.14
ACAAAGCAAUAUUACGUAAG	-1.19 ± 0.056	-0.79 ± 0.069
CUUUAGCAAUAUUACGGGUA	-3.97 ± 0.47	-2.56 ± 0.21
AGACAGCAAUAUUACGCAAA	-2.66 ± 0.18	-1.37 ± 0.14
GGCGAGCAAUAUUACGAUUA	-2.12 ± 0.22	-1.44 ± 0.17
CUAGAGCAAUAUUACGUAGA	-3.37 ± 0.16	-1.5 ± 0.15
UUUUAGCAAUAUUACGCCAA	-2.27 ± 0.35	0.0505 ± 0.22
AUACAGCAAUAUUACGUCUA	-0.606 ± 0.078	-0.238 ± 0.079
CCGGAGCAAUAUUACGUAGA	-3.6 ± 0.19	-2.66 ± 0.2
ACGCAGCAAUAUUACGUCGU	-3.77 ± 0.26	-1.6 ± 0.21
CCGAAGCAAUAUUACGGCUU	-3.9 ± 0.29	-3.29 ± 0.32

Sequence	self-splicing fitness (ln) (30 °C)	self-splicing fitness (ln) (37 °C)
AGAGAGCAAUAUUACGGCGG	-2.77 ± 0.48	
AGUGAGCAAUAUUACGCGGG		-2.1 ± 0.37
CGGUAGCAAUAUUACGAACG	-1.54 ± 0.13	-1.29 ± 0.14
GAUUAGCAAUAUUACGCAGA	-3.16 ± 0.23	-1.16 ± 0.16
CUUCAGCAAUAUUACGGGCC	-1.78 ± 0.22	
UGUGAGCAAUAUUACGCAGC		-1.77 ± 0.4
CCUUAGCAAUAUUACGACCG	0.294 ± 0.11	-0.348 ± 0.18
CGGGAGCAAUAUUACGCACU	-2.4 ± 0.24	-2.65 ± 0.25
AGCCAGCAAUAUUACGCCAC		-3.04 ± 0.43
GCUGAGCAAUAUUACGAGAU	-3.06 ± 0.34	-2.09 ± 0.31
GGAGAGCAAUAUUACGGGGC	-3.01 ± 0.27	-2.71 ± 0.44
UAAGAGCAAUAUUACGGAAG	-2.8 ± 0.41	
UAGUAGCAAUAUUACGACUU	0.654 ± 0.13	-0.285 ± 0.14
AGUUAGCAAUAUUACGAGCA	-0.518 ± 0.11	-0.169 ± 0.12
CCCAAGCAAUAUUACGACUC	-3.56 ± 0.33	-2.1 ± 0.33
GACUAGCAAUAUUACGACCU	0.114 ± 0.093	-0.756 ± 0.095
ACUAAGCAAUAUUACGCCUG	-1.78 ± 0.14	-0.595 ± 0.15
CCCAAGCAAUAUUACGUCUC	-2.71 ± 0.15	-2.25 ± 0.26
CUGAAGCAAUAUUACGACGA	-1.04 ± 0.097	-0.00885 ± 0.14
UUUAAGCAAUAUUACGGUAA	-1.08 ± 0.12	-1.01 ± 0.096
